Reference: PMC9287719
Where two headings read alike, the source gives them in different places. Blank lines part the entries; values can stand above or below the substance they belong to.

How the values were obtained:
[1] = target: Recombinant FcγRIIa (H131) with C-terminus Biotin (human) (UniProt P12318)
[2] = target: Recombinant FcγRIIa (R131) with C-terminus Biotin (human) (UniProt P12318)
[3] = target: Recombinant FcγRIIIa (F158) with C-terminus Biotin (human) (UniProt P08637)
[4] = target: Recombinant FcγRIIIa (V158) with C-terminus Biotin (human)
Target sequence in this assay (P08637 17-208 F176V): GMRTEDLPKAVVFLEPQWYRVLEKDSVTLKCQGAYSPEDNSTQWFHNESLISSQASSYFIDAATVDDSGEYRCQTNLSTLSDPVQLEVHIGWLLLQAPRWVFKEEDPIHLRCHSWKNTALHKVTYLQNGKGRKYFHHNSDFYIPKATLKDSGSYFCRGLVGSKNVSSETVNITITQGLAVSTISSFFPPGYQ

[5] = target: Recombinant FcγRIIb with C-terminus Biotin (human) (UniProt P31994)
[6] = target: Recombinant FcγRI with C-terminus Biotin (human) (UniProt P12314)
[7] = target: Recombinant FcγRIIIa (V158) with C-terminus Biotin (human); remark: listed apart in the source
Target sequence in this assay (P08637 17-208 F176V): as above

[8] = target: Recombinant FcγRIIa (R131) with C-terminus Biotin (human) (UniProt P12318); remark: listed apart in the source
[9] = target: Recombinant FcγRIIa (H131) with C-terminus Biotin (human) (UniProt P12318); remark: listed apart in the source
[10] = target: Recombinant FcγRIIa (R131) with C-terminus Biotin (human) (UniProt P12318); remark: listed apart in the source
[11] = target: Recombinant FcγRI with C-terminus Biotin (human) (UniProt P12314); remark: listed apart in the source
[12] = target: Recombinant FcγRIIb with C-terminus Biotin (human) (UniProt P31994); assay: other; qualitative only
[13] = target: Recombinant FcγRIIa (H131) with C-terminus Biotin (human) (UniProt P12318); remark: listed apart in the source
[14] = target: Recombinant FcγRIIIa (V158) with C-terminus Biotin (human); assay: split reporter (BiFC, NanoBiT); homogeneous competition assay in solution for FcγRIIa and FcγRIIIa variants: sample competes with IgG-LgBiT tracer for FcγR-Biotin mixed 1:1 with Streptavidin-SmBiT; 30–60 min; PBS with 10% superblock; IC50 equivalent to apparent affinity (KD)
[15] = target: Recombinant FcγRIIa (H131) with C-terminus Biotin (human) (UniProt P12318); assay: as above
[16] = target: Recombinant FcγRIIIa (F158) with C-terminus Biotin (human) (UniProt P08637); assay: as above
[17] = target: Recombinant FcγRIIa (R131) with C-terminus Biotin (human); assay: as above

Chain of Recombinant FcγRIIa (H131) with C-terminus Biotin (human) (P12318 34-217): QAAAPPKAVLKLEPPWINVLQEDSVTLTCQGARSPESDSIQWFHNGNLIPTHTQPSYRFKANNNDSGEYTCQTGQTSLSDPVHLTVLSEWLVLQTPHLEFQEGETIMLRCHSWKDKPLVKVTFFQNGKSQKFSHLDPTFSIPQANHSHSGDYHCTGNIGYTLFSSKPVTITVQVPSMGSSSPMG
Chain of Human IgG2 (P01859 whole entry, looked up): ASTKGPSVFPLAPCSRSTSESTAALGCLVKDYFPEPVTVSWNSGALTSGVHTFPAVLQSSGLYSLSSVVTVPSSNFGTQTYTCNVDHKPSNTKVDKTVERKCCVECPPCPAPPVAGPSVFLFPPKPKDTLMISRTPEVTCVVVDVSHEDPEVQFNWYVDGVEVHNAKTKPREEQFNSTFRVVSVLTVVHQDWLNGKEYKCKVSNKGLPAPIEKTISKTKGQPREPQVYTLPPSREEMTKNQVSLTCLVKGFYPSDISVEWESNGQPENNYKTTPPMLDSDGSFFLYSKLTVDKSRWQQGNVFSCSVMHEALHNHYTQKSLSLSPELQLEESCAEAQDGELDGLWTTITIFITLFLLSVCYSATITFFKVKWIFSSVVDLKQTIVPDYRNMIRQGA
Chain of Human IgG4 (P01861 whole entry, looked up): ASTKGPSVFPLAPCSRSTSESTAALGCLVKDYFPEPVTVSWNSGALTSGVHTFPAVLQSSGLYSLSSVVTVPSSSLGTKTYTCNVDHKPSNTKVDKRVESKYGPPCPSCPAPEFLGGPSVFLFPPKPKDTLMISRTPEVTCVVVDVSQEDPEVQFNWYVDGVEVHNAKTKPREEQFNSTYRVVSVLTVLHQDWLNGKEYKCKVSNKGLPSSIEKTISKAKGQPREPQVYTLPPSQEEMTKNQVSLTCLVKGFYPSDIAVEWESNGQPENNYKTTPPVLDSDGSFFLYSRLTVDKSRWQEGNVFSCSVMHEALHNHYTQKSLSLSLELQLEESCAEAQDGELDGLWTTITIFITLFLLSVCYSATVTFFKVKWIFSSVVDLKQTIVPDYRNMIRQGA
Chain of Recombinant FcγRIIa (R131) with C-terminus Biotin (human) (UniProt P12318) (P12318 34-217 H167R): as the sequence (P12318 34-217) above, with H134R counted along it
Chain of Recombinant FcγRIIb with C-terminus Biotin (human) (P31994 43-217): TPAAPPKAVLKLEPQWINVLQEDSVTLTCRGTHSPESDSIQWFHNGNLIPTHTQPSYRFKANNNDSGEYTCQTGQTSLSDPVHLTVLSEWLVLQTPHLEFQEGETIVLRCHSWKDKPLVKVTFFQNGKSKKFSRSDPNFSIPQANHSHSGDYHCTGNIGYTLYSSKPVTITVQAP
Chain of Recombinant FcγRIIIa (F158) with C-terminus Biotin (human) (P08637 17-208): as the sequence (P08637 17-208 F176V) above, with V160F counted along it
Chain of Recombinant FcγRI with C-terminus Biotin (human) (P12314 16-292): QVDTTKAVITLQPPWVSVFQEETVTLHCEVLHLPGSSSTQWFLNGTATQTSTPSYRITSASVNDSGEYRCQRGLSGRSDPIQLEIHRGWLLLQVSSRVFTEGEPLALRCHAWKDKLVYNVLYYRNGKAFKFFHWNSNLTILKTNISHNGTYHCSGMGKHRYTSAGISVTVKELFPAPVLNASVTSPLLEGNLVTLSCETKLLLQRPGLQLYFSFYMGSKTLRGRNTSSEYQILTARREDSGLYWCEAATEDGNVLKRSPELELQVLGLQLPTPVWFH

IC50 [1]: 55.8 nM
IC50 [2]: 178 nM
IC50 [3]: 95.5 nM
IC50 [4]: 12.5 nM
IC50 [5]: 1120 nM
Substance: Gammagard (from UniProt P01857)

IC50 [6]: 29.4 nM
IC50 [7]: 2040 nM
IC50 [8]: 519 nM
IC50 [9]: 77.1 nM
Substance: Human IgG2 (from UniProt P01859)

IC50 [10]: 128 nM
IC50 [11]: 1.07 nM
IC50 [12]: 573 nM
IC50 [13]: 102 nM
Substance: Human IgG4 (from UniProt P01861)

IC50 [14]: 18.4 nM
IC50 [15]: 11.3 nM
IC50 [16]: 107 nM
IC50 [17]: 42.6 nM
Substance: Human IgG (human polyclonal IgG) (antibody)
